From PMC7747229 (Nature, 2020)
“And” between values parts separate entries of the source, which are not always exact repeats. Equal values may be shown once.

Target: the molecule itself
Test: cryo-EM structure

B1: KAT1em (KAT1 from Arabidopsis thaliana, amino acids M1-S502) (domain or fragment)
chain: not shown
  stoichiometry N: 8 and 4
